We go through 70 variants from the Human Domainome abundance scans (Beltran et al. 2025).

± gives the uncertainty stated by the source.

B1: Advillin, residues 785 to 819; numbered along this chain, O75366 (parent)
chain: LSEQDFVSVFGITRGQFAALPGWKQLQMKKEKGLF

In this series the parent is B1. The series can be described thus: abundance fitness (aPCA) (normalised: wild type 0, dead -1); higher = more abundant; growth selection in yeast, the domain comes from the species named. To be noted: Homo sapiens.
As to LSEQDFVSVFGMTRGQFAALPGWKQLQMKKEKGLF, the abundance fitness stood at 0.128 ± 0.079.

Regarding LSEQDFVSVFGVTRGQFAALPGWKQLQMKKEKGLF, the abundance fitness is -0.089 ± 0.069.

Consider LSEQDFVSVFGYTRGQFAALPGWKQLQMKKEKGLF, for which the abundance fitness was -0.306 ± 0.14.

Take LSEQDFVSVFGRTRGQFAALPGWKQLQMKKEKGLF: the abundance fitness is -0.629 ± 0.058.

On to LSEQDFVSVFGNTRGQFAALPGWKQLQMKKEKGLF, for which the abundance fitness is -0.471 ± 0.1.

For the variant LSEQDFVSVFGTTRGQFAALPGWKQLQMKKEKGLF, the abundance fitness was -0.531 ± 0.084.

On to LSEQDFVSVFGSTRGQFAALPGWKQLQMKKEKGLF, for which the abundance fitness was -0.629 ± 0.064.

For LSEQDFVSVFGITRGQFAAPPGWKQLQMKKEKGLF, the abundance fitness is -0.759 ± 0.12.

For the variant LSEQDFVSVFGITRGQFAAAPGWKQLQMKKEKGLF, the abundance fitness was -0.593 ± 0.077.

For the variant LSEQDFVSVFGITRGQFAAKPGWKQLQMKKEKGLF, the abundance fitness was -0.639 ± 0.099.

Take LSEQDFVSVFGITRGQFAARPGWKQLQMKKEKGLF: the abundance fitness was -0.563 ± 0.059.

On to LSEQDFVSVFGITRGQFAADPGWKQLQMKKEKGLF, for which the abundance fitness is -0.113 ± 0.16.

For the variant LSEQDFVSVFGITRGQFAASPGWKQLQMKKEKGLF, the abundance fitness is -0.328 ± 0.062.

As for LSEQDFVSVFGITRGQFAAFPGWKQLQMKKEKGLF, the abundance fitness was -0.832 ± 0.18.

As for LSEQDFVSVFGITRGQFAAIPGWKQLQMKKEKGLF, the abundance fitness was -0.902 ± 0.31.

With LSEQDFVSVFGITRGQFAANPGWKQLQMKKEKGLF, the abundance fitness was -0.248 ± 0.21.

On to LSEQDFVSVFGITRGQFAAEPGWKQLQMKKEKGLF, for which the abundance fitness is -0.404 ± 0.09.

Take LSEQDFVSVFGITRGQFAAMPGWKQLQMKKEKGLF: the abundance fitness was -0.211 ± 0.056.

For the variant LSEQDFVSVFGITRGQFAATPGWKQLQMKKEKGLF, the abundance fitness was -0.424 ± 0.079.

In the case of LSEQDFVSVFGITRGQFAAQPGWKQLQMKKEKGLF, the abundance fitness is -0.368 ± 0.1.

In the case of LSEQDFVSVFGITRGQFAAGPGWKQLQMKKEKGLF, the abundance fitness is -0.408 ± 0.076.

As to LSEQDFVSVFGITRGQFAAHPGWKQLQMKKEKGLF, the abundance fitness was -0.487 ± 0.1.

As for LSEQDFVSVFGITRGQFAACPGWKQLQMKKEKGLF, the abundance fitness was -0.847 ± 0.11.

On to LSEQDFVSVFGITRGQFAILPGWKQLQMKKEKGLF, for which the abundance fitness was -0.5 ± 0.35.

For the variant LSEQDFVSVFGITRGQFATLPGWKQLQMKKEKGLF, the abundance fitness is -0.254 ± 0.069.

Take LSEQDFVSVFGITRGQFAHLPGWKQLQMKKEKGLF: the abundance fitness was -0.119 ± 0.11.

For LSEQDFVSVFGITRGQFALLPGWKQLQMKKEKGLF, the abundance fitness was -0.137 ± 0.082.

Take LSEQDFVSVFGITRGQFAGLPGWKQLQMKKEKGLF: the abundance fitness is -0.114 ± 0.055.

Turning to LSEQDFVSVFGITRGQFASLPGWKQLQMKKEKGLF, the abundance fitness is -0.068 ± 0.078.

Take LSEQDFVSVFGITRGQFADLPGWKQLQMKKEKGLF: the abundance fitness was -0.068 ± 0.13.

Regarding LSEQDFVSVFGITRGQFAWLPGWKQLQMKKEKGLF, the abundance fitness was -0.654 ± 0.096.

With LSEQDFVSVFGITRGQFAFLPGWKQLQMKKEKGLF, the abundance fitness is -0.245 ± 0.26.

Regarding LSEQDFVSVFGITRGQFAQLPGWKQLQMKKEKGLF, the abundance fitness is -0.367 ± 0.14.

Turning to LSEQDFVSVFGITRGQFAPLPGWKQLQMKKEKGLF, the abundance fitness was -0.749 ± 0.11.

Regarding LSEQDFVSVFGITRGQFACLPGWKQLQMKKEKGLF, the abundance fitness was -0.209 ± 0.16.

Turning to LSEQDFVSVFGITRGQFAELPGWKQLQMKKEKGLF, the abundance fitness came to 0.021 ± 0.063.

For the variant LSEQDFVSVFGITRGQFAYLPGWKQLQMKKEKGLF, the abundance fitness is -0.409 ± 0.12.

Consider LSEQDFVSVFGITRGQFANLPGWKQLQMKKEKGLF, for which the abundance fitness is -0.052 ± 0.18.

As to LSEQDFVSVFGITRGQFAMLPGWKQLQMKKEKGLF, the abundance fitness is -0.174 ± 0.096.

For LSEQDFVSVFGITRGQCAALPGWKQLQMKKEKGLF, the abundance fitness was -0.435 ± 0.14.

As to LSEQDFVSVFGITRGQKAALPGWKQLQMKKEKGLF, the abundance fitness is -0.479 ± 0.078.

With LSEQDFVSVFGITRGQWAALPGWKQLQMKKEKGLF, the abundance fitness is -0.441 ± 0.08.

Turning to LSEQDFVSVFGITRGQVAALPGWKQLQMKKEKGLF, the abundance fitness was -0.396 ± 0.072.

With LSEQDFVSVFGITRGQRAALPGWKQLQMKKEKGLF, the abundance fitness was -0.554 ± 0.058.

With LSEQDFVSVFGITRGQPAALPGWKQLQMKKEKGLF, the abundance fitness was -0.631 ± 0.11.

Take LSEQDFVSVFGITRGQHAALPGWKQLQMKKEKGLF: the abundance fitness is -0.965 ± 0.22.

LSEQDFVSVFGITRGQQAALPGWKQLQMKKEKGLF: the abundance fitness is -0.344 ± 0.18.

Regarding LSEQDFVSVFGITRGQSAALPGWKQLQMKKEKGLF, the abundance fitness was -0.454 ± 0.058.

Take LSEQDFVSVFGITRGQEAALPGWKQLQMKKEKGLF: the abundance fitness was -0.33 ± 0.07.

Take LSEQDFVSVFGITRGQGAALPGWKQLQMKKEKGLF: the abundance fitness was -0.37 ± 0.055.

In the case of LSEQDFVSVFGITRGQIAALPGWKQLQMKKEKGLF, the abundance fitness is -0.538 ± 0.12.

With LSEQDFVSVFGITRGQMAALPGWKQLQMKKEKGLF, the abundance fitness is -0.249 ± 0.081.

As to LSEQDFVSVFGITRGQTAALPGWKQLQMKKEKGLF, the abundance fitness was -0.486 ± 0.12.

Take LSEQDFVSVFGITRGQAAALPGWKQLQMKKEKGLF: the abundance fitness is -0.389 ± 0.059.

As for LSEQDFVSVFGITRGQYAALPGWKQLQMKKEKGLF, the abundance fitness was -0.969 ± 0.14.

Turning to LSEQDFVSVFGITRGQLAALPGWKQLQMKKEKGLF, the abundance fitness was -0.476 ± 0.082.

Take LSEQDFVSVFGITRGQFQALPGWKQLQMKKEKGLF: the abundance fitness was -0.05 ± 0.1.

Consider LSEQDFVSVFGITRGQFSALPGWKQLQMKKEKGLF, for which the abundance fitness is -0.201 ± 0.065.

As for LSEQDFVSVFGITRGQFGALPGWKQLQMKKEKGLF, the abundance fitness is -0.103 ± 0.059.

Turning to LSEQDFVSVFGITRGQFNALPGWKQLQMKKEKGLF, the abundance fitness came to 0.154 ± 0.1.

For LSEQDFVSVFGITRGQFLALPGWKQLQMKKEKGLF, the abundance fitness is -0.062 ± 0.078.

As to LSEQDFVSVFGITRGQFWALPGWKQLQMKKEKGLF, the abundance fitness is -0.358 ± 0.088.

With LSEQDFVSVFGITRGQFEALPGWKQLQMKKEKGLF, the abundance fitness was 0.214 ± 0.063.

LSEQDFVSVFGITRGQFKALPGWKQLQMKKEKGLF: the abundance fitness was found to be 0.188 ± 0.12.

Take LSEQDFVSVFGITRGQFCALPGWKQLQMKKEKGLF: the abundance fitness was -0.079 ± 0.09.

Consider LSEQDFVSVFGITRGQFMALPGWKQLQMKKEKGLF, for which the abundance fitness is -0.3 ± 0.48.

In the case of LSEQDFVSVFGITRGQFPALPGWKQLQMKKEKGLF, the abundance fitness was -0.438 ± 0.16.

With LSEQDFVSVFGITRGQFRALPGWKQLQMKKEKGLF, the abundance fitness was -0.197 ± 0.067.

LSEQDFVSVFGITRGQFIALPGWKQLQMKKEKGLF: the abundance fitness was -0.1 ± 0.1.

Turning to LSEQDFVSVFGITRGQFHALPGWKQLQMKKEKGLF, the abundance fitness was -0.362 ± 0.19.
